According to publication doi:10.1101/2025.03.24.644901, “Substrate recognition by human separase” (bioRxiv, 2025):

Molecular target: T1, inactive apo-separase (separase^C2029S) (human, UniProt Q14674 1-2120, C2029S)
T1 construct: human separase, aa 1-2120, catalytic cysteine replaced with serine; AIL1 and the autocleavage sites are intact in this construct; also called apo-separase^C2029S; source: Sf9 (baculovirus), purified (StrepTactin, heparin, Superose 6)
Assay: fluorescence polarisation; FlAsH-labelled MBP-SCC1 fragment as probe, inactive separase added; 25 mM HEPES pH 8.0, 100 mM NaCl, 0.1 mg/ml BSA, 0.01% NP40; 25°C; One Site-Total non-linear fit; three repeats
Conditions: both partners purified

T1 sequence (Q14674 whole entry C2029S, the tested form may be a part): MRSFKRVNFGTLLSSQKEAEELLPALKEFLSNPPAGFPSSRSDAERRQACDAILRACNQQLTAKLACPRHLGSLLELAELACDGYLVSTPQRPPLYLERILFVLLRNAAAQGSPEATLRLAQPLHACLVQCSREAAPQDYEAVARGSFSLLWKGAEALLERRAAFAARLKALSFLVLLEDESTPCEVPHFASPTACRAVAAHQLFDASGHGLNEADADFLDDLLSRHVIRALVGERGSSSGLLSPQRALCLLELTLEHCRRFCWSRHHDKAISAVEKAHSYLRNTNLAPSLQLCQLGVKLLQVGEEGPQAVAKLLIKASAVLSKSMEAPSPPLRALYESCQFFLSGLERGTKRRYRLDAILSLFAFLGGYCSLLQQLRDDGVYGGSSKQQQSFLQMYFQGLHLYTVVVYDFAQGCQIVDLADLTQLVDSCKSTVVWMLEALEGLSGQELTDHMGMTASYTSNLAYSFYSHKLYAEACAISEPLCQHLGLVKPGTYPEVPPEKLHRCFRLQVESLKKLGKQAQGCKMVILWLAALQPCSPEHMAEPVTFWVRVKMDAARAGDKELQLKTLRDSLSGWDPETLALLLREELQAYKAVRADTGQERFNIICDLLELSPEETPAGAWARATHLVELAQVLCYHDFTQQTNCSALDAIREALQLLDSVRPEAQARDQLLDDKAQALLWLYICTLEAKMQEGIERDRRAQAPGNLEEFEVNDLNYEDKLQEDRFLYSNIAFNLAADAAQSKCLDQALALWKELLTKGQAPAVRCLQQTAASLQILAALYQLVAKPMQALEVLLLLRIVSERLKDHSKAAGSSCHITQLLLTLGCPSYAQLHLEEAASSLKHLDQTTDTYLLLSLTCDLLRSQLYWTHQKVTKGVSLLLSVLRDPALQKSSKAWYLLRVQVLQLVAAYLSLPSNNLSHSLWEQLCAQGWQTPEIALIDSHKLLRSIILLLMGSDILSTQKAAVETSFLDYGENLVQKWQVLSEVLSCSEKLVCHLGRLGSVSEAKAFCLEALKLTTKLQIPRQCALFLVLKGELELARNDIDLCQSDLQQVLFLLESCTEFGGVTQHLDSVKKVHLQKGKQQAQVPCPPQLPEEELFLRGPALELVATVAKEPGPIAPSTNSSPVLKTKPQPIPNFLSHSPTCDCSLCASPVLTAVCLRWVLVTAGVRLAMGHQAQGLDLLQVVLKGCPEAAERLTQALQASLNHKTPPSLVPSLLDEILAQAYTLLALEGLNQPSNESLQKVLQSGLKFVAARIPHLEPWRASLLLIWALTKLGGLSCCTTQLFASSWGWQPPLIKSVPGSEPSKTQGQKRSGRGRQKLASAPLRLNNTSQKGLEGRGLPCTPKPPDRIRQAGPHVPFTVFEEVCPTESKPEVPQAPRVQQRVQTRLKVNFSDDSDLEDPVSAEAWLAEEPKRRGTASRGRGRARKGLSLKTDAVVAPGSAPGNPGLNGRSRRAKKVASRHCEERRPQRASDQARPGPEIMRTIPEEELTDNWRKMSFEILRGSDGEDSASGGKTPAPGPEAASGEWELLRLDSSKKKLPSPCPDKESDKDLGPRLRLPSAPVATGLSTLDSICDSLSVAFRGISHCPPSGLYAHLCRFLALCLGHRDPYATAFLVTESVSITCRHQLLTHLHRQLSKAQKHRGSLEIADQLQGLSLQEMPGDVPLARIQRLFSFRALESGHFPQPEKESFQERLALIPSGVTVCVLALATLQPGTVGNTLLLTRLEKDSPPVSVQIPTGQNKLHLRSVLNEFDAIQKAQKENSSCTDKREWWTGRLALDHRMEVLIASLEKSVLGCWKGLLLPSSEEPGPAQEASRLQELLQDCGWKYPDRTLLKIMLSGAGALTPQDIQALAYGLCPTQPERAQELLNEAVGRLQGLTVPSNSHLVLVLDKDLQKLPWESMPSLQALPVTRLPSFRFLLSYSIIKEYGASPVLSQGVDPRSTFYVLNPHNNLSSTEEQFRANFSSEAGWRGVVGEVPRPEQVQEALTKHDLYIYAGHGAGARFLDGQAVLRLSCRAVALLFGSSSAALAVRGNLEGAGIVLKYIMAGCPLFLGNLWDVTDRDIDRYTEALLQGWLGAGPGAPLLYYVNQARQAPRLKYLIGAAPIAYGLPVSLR

binding result: binds
B1: MBP-SCC1 (aa 350-550) with C-terminal tetracysteine motif, FlAsH-labelled (domain or fragment, human, UniProt O60216 350-550, looked up)
chain: TLDLAPPTKKLMMWKETGGVEKLFSLPAQPLWNNRLLKLFTRCLTPLVPEDLRKRRKGGEADNLDEFLKEFENPEVPREDQQQQHQQRDVIDEPIIEEPSRLQESVMEASRTNIDESAMPPPPPQGVKRKAGQIDPEPVMPPQQVEQMEIPPVELPPEEPPNICQLIPELELLPEKEKEKEKEKEDDEEEEDEDASGGDQD
modifications: FlAsH-EDT2 fluorescent dye on the C-terminal tetracysteine motif
notes: human SCC1/RAD21, aa 350-550 (holds cleavage site 2, R427); also called SCC1^350–550; SCC1 site 2 (aa 350-550); source: E. coli BL21 (DE3), purified (Hitrap MBP, Superdex 200); not shown: 6xHis-MBP, N-terminal, kept
